Numbering of substitutions follows the chain as printed. In names and notes the source's numbering stands. Where two headings read alike, the source gives them in different places.
Experiments:
[1] = target: T1, soluble monomeric FcγRIIIA-linker-AVITAG (158V), biotinylated (human, UniProt P08637 17-203, biotin on the AVITAG lysine (BirA)); test: SPR
T1 construct: range 1-203; used as monomer in ELISA and BIAcore; also called FcR3A; FcRIIIa; not shown: linker-AVITAG (15 aa AVITAG) at the C-terminus; only the coding oligonucleotide is given
T1 sequence (P08637 17-203 F176V limits assumed, form in doubt): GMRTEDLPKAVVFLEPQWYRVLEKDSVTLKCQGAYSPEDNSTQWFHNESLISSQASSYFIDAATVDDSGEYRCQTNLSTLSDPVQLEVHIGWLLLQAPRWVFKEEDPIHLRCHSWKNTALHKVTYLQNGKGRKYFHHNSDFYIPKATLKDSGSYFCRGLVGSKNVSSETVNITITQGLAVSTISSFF

[2] = target: T2, FcγRIIB-Fc fusion protein (soluble dimeric FcγRIIB) (human, UniProt P31994 43-217); test: SPR
T2 construct: extracellular domain; the suffix agl in 2bfcagl is not explained; also called FcRIIB-Fc; FcγRIIB-G2; not shown: hinge-CH2-CH3 domain of human IgG2
T2 sequence (looked up): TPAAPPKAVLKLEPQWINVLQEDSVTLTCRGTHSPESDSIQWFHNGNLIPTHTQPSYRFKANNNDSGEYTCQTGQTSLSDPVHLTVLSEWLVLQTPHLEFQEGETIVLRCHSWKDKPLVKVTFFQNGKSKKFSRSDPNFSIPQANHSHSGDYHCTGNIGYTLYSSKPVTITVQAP

[3] = target: T1, soluble monomeric …; test: ELISA
[4] = target: T2, FcγRIIB-Fc fusion protein (soluble …); test: ELISA
[5] = target: T1, soluble monomeric …; test: ELISA; remark: listed apart in the source
[6] = target: T2, FcγRIIB-Fc fusion protein (soluble …); test: ELISA; remark: listed apart in the source
[7] = target: T1, soluble monomeric …; test: SPR; remark: listed apart in the source
[8] = target: T2, FcγRIIB-Fc fusion protein (soluble …); test: SPR; remark: listed apart in the source
[9] = target: T1, soluble monomeric …; test: ELISA; remark: listed apart in the source
[10] = target: T2, FcγRIIB-Fc fusion protein (soluble …); test: ELISA; remark: listed apart in the source

B1: ch4-4-20 G316D, A378V, D399E (antibody)
chain: ASTKGPSVFPLAPSSKSTSGGTAALGCLVKDYFPEPVTVSWNSGALTSGVHTFPAVLQSSGLYSLSSVVTVPSSSLGTQTYICNVNHKPSNTKVDKKVEPKSCDKTHTCPPCPAPELLGGPSVFLFPPKPKDTLMISRTPEVTCVVVDVSHEDPEVKFNWYVDGVEVHNAKTKPREEQYNSTYRVVSVLTVLHQDWLNDKEYKCKVSNKALPAPIEKTISKAKGQPREPQVYTLPPSRDELTKNQVSLTCLVKGFYPSDIVVEWESNGQPENNYKTTPPVLESDGSFFLYSKLTVDKSRWQQGNVFSCSVMHEALHNHYTQKSLSLSPGK
Work on B1 yielded a Kd [1] of 72 nM, a koff [1] of 0.117 s⁻¹ and a Kd [2] of 46 nM. The koff [2] was 0.06 s⁻¹, the fold vs wt [3] was 1.5 x increase and the fold vs wt [4] was 14 x increase. It also gave a fold vs wt [5] of 1.5 X and a fold vs wt [6] of 14 X.

B2: ch4-4-20 V348M, K334N, F275I, Y202M, K147T (antibody)
chain: B1 chain with K30T, V85M, F158I, D199G, K217N, V231M, V261A, E282D
B2 showed a fold vs wt [3] of 0.5 x increase.

B3: ch4D5 MGFc0074 (F243L, R292P, V305I) (antibody)
chain: B1 chain with F126L, R175P, V188I, D199G, V261A, E282D
With B3 the “Koff WT/Koff MUT” value [7] was 2.56 ratio.

B4: ch4-4-20 F243I, V379L, G420V (antibody)
chain: B1 chain with F126I, D199G, V261A, V262L, E282D, G303V
In the case of B4, the Kd [2] is reported as 93.4 nM and the koff [2] is reported as 0.101 s⁻¹.

B5: ch4-4-20 K334E, T359N, T366S (antibody)
chain: B1 chain with D199G, K217E, T242N, T249S, V261A, E282D
With B5 the Kd [1] was 55.2 nM, the koff [1] was 0.128 s⁻¹ and the Kd [2] was 72 nM. It also gave a koff [2] of 0.11 s⁻¹, a fold vs wt [3] of 1.5 x increase and a fold vs wt [5] of 1.5 X.

B6: ch4D5 MGFc0088A (F243L, R292P, Y300L, P396L) (antibody)
chain: B1 chain with F126L, R175P, Y183L, D199G, V261A, P279L, E282D
B6 was tested, and the “Koff WT/Koff MUT” value [7] was 10.1 ratio.

B7: ch4-4-20 K317N, F423-deleted (antibody)
chain: EPKSCDKTHTCPPCPAPELLGGPSVFLFPPKPKDTLMISRTPEVTCVVVDVSHEDPEVKFNWYVDGVEVHNAKTKPREEQYNSTYRVVSVLTVLHQDWLNGNEYKCKVSNKALPAPIEKTISKAKGQPREPQVYTLPPSREEMTKNQVSLTCLVKGFYPSDIAVEWESNGQPENNYKTTPPVLDSDGSFFLYSKLTVDKSRWQQGNVSCSVMHEALHNHYTQKSLSLSPGK
B7 showed a fold vs wt [4] of 7 x increase.

B8: ch4-4-20 T215P, K274N, A287G, K334N, L365V, P396L (antibody)
chain: PEPKSCDKTHTCPPCPAPELLGGPSVFLFPPKPKDTLMISRTPEVTCVVVDVSHEDPEVNFNWYVDGVEVHNGKTKPREEQYNSTYRVVSVLTVLHQDWLNGKEYKCKVSNKALPAPIENTISKAKGQPREPQVYTLPPSRDELTKNQVSVTCLVKGFYPSDIAVEWESNGQPENNYKTTPLVLDSDGSFFLYSKLTVDKSRWQQGNVFSCSVMHEALHNHYTQKSLSLSPGK
B8 was tested, and the fold vs wt [4] was 4 x increase.

B9: ch4-4-20 K288N, A330S, P396L (antibody)
chain: EPKSCDKTHTCPPCPAPELLGGPSVFLFPPKPKDTLMISRTPEVTCVVVDVSHEDPEVKFNWYVDGVEVHNANTKPREEQYNSTYRVVSVLTVLHQDWLNGKEYKCKVSNKALPSPIEKTISKAKGQPREPQVYTLPPSREEMTKNQVSLTCLVKGFYPSDIAVEWESNGQPENNYKTTPLVLDSDGSFFLYSKLTVDKSRWQQGNVFSCSVMHEALHNHYTQKSLSLSPGK
With B9 the Kd [2] was 33.4 nM, the Kd [8] was 41.3 nM and the “ELISA, OD” value [9] was 1 OD. The “ELISA, OD” value [10] was 1.2 OD.

B10: ch4-4-20 E293V, Q295E, A327T (antibody)
chain: B9 chain with N73K, E78V, Q80E, A112T, S115A, L181P
Work on B10 yielded a Kd [2] of 86 nM.

B11: ch4-4-20 Y319F, P352L, P396L (antibody)
chain: B9 chain with N73K, Y104F, S115A, P137L
Work on B11 yielded a Kd [1] of 125 nM, a Kd [2] of 55.7 nM and a fold vs wt [5] of 3.5 X.
